Publication PMC6884320

System: Glu92
Assay: kinetics

AlleyCat2 (second-round evolved AlleyCat) (M144R; other substitutions not stated (includes the AlleyCat mutation that gives Glu92))
pKa (not stated (Figure S14 not available), Ca2+-bound, turning over leflunomide): 7.06 ± 0.02 | pKa (turning over the Kemp elimination substrate, cited from earlier work): 6.73 ± 0.03
